Data set [1] has as its target T1, FXR1 (GST-FXR1) (Homo sapiens, UniProt P51114 1-621). The data set can be described thus: competition EMSA. A general note: A gel shift assay detects complexes by their altered migration in electrophoresis.
Data set [2] has as its target T1, FXR1 (GST-FXR1). The experiment in a line: EMSA.
In another data set the target is HuR (GST-HuR) (UniProt Q15717 1-326). The experiment in a line: EMSA.
The target in data set [3] is T1, FXR1 (GST-FXR1). The data set can be described thus: EMSA. The source holds these as a separate data set.

T1 sequence (P51114 whole entry): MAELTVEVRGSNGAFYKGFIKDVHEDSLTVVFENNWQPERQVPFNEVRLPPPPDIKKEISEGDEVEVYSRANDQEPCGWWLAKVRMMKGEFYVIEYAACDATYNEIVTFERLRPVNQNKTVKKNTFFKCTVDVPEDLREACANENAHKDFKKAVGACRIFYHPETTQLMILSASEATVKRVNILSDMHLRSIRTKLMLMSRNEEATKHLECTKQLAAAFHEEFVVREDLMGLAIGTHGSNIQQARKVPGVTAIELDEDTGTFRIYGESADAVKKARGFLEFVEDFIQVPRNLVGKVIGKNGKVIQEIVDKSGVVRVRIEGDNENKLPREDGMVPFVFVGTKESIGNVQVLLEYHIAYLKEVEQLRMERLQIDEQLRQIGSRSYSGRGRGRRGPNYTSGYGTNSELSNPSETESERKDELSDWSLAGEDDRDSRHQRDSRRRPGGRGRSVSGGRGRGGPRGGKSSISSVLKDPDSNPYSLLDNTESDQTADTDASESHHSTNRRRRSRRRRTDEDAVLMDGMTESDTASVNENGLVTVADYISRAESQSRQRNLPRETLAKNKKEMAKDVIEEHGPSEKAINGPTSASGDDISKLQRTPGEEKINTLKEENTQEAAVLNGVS
HuR (GST-HuR), sequence (Q15717 whole entry): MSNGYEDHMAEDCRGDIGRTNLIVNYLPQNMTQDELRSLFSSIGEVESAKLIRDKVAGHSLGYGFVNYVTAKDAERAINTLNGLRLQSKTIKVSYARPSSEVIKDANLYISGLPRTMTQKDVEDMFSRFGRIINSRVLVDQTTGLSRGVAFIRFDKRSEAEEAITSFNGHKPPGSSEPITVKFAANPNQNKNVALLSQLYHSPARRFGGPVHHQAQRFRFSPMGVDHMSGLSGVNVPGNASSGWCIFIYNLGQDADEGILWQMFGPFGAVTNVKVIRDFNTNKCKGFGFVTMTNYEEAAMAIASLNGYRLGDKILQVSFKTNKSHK

Consider UUAUUUAUUUUAUUUAUUUUAUUUAUU (ssRNA) [(UUAUUUAUU)3 (probe C)], for which the binding result with FXR1 (GST-FXR1) [1] was “binds”.

Take CUUGUGAUUAUUUAUUAUUUAUUUAUUAUUUAUUUAUUUACAGAGAUGAA (ssRNA) [TNFα 3'UTR 50-mer (probe A)]: the binding result with FXR1 (GST-FXR1) [2] and in the data set with HuR (GST-HuR) was “binds” each time.

In the case of AUUUAAUUUAAUUUAAUUUAAUUUA (ssRNA) [(AUUUA)5 (probe B)], the binding result in the data set with FXR1 (GST-FXR1) [1] is “binds”.

For the molecule AUUUA (ssRNA) [AUUUA monomer], in the data set with FXR1 (GST-FXR1) [3], the binding result was “no binding”.

The values above are taken from PMC11004729.
